According to patent US20190300576A1:

Columns and labels:
SUMO-C-CA (HIV-1) [1] = assay: BLI, biotinylated peptide immobilized on streptavidin sensors, SUMO-C-CA in solution
SUMO-C-CA (HIV-1) [2] = assay: BLI, C-terminally biotinylated peptide immobilized
SUMO-C-CA (HIV-1) [3] = assay: BLI, peptide on streptavidin sensors, global fit
[4] = molecular target: Trypsin from bovine pancreas (bovine) (UniProt P00760); assay: Trypsin inhibition assay
SUMO-C-CA (HIV-1) [5] = assay: HPSEC affinity selection, 50*7.8mm BIO-SEC-3 column, peptide quantified by LC-MS in the protein fraction

Sequence of Trypsin from bovine pancreas (bovine) (P00760 24-246): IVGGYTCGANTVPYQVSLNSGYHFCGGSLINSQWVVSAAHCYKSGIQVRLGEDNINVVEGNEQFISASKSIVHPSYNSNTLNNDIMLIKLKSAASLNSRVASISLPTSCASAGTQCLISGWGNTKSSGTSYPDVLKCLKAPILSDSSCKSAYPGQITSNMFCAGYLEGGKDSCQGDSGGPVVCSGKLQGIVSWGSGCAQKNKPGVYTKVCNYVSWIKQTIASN

| Substance | Kd (SUMO-C-CA (HIV-1) [1]) [µM] | Kd (SUMO-C-CA (HIV-1) [2]) [µM] | Kd (SUMO-C-CA (HIV-1) [3]) [µM] | Kd [4] [µM] | Selection yield (%) (SUMO-C-CA (HIV-1) [5]) |
| --- | --- | --- | --- | --- | --- |
| peptide 37a (biotinylated CAI) | 2.3 | 2.3 | 2.2 | – | – |
| EETI-II-diol (59) (from UniProt P12071 1-28) (peptide) | – | – | – | 0.00093 | – |
| CAI (37) (peptide) | – | – | – | – | 0.5 |
| peptide NYAD (37a-M) | 5.8 | – | 5 | – | – |
